Test results taken from FireProtDB (doi:10.1007/s00775-020-01777-0).

Settings: pH 7.4, UV/Vis spectroscopy, HEPES, transition: 2, reversible: > 90% (Yes), whole UniProt chain shown; for denaturant m value / denaturant midpoint (higher = more stable) / unfolding free energy: 15 °C, GdnHCl, potassium ferricyanide; for Tm / unfolding enthalpy (van 't Hoff): Thermal
[1] = Fragilariopsis cylindrus CCMP1102

Protein	denaturant m value (Thalassiosira pseudonana) [kcal/mol/M]	denaturant midpoint (higher = more stable) (Thalassiosira pseudonana) [M]	unfolding free energy (Thalassiosira pseudonana) [kcal/mol]	Tm (Thalassiosira pseudonana) [°C]	unfolding enthalpy (van 't Hoff) (Thalassiosira pseudonana) [kcal/mol]	denaturant m value [1] [kcal/mol/M]	denaturant midpoint (higher = more stable) [1] [M]	unfolding free energy [1] [kcal/mol]	Tm [1] [°C]	unfolding enthalpy (van 't Hoff) [1] [kcal/mol]
Cytochrome c-553 wild type, B8C6L5 (protein) MKLTIVAALIASASAWTTPKSFESVKAAVAGAAVTAGVAVSPAFAGDVGAGEQIFNANCAACHAGGQNVIMPDKTLEKEALEQYLAGGRNEKAVMTQVTNGKNAMPAFGGRLSDEDIANVASYVIATSEAGWD	2.1	1.2	2.63	39.1	38.7					
Cytochrome c-553 wild type, A0A1E7EP28 (protein) MKFAIFATLLVSASAFSINKADVAKAAAAGAIAFSVAAGPAFAGDVGAGEQIFNANCAACHAGGQNVIMPEKTLEKEALDQYLSGGRSEKSVMTQVTNGKNAMPAFGGRLSEEDIANVASYVISSAEAGWEE						4.6	0.5	2.15	28.8	44.7
